{
  "source": "paper PMC11544074",
  "binders": {"B1": {"name": "HSV120 dsDNA (unlabelled) (dsDNA)", "DNA 1": "TAAGACACGATGCGATAAAATCTGTTTGTAAAATTTATTAAGGGTACAAATGCCCTAGCTAGACACGATGCGATAAAATCTGTTTGTAAAATTTATTAAGGGTACAAATTGCCCTAGC", "DNA 2": "GCTAGGGCAATTTGTACCCTTAATAAATTTTACAAACAGATTTTATCGCATCGTGTCTAGCTAGGGCATTTGTACCCTTAATAAATTTTACAAACAGATTTTATCGCATCGTGTCTTA"}},
  "target": "GFP-pNLRC3-8xHis (Sus scrofa (pig), UniProt A0A287AW79 1-1066)",
  "assay": "MST",
  "data": [
    {"binder": "B1", "values": [
      {"measurement": "Kd", "result": 10.1, "unit": "µM"}
    ]}
  ]
}
